Consider one substance from US20250277025A1.

The experiment addresses human CLDN18.2 expressed on cells (human). In words: cell-based or functional assay.

Human IgG1 isotype antibody: the ADCC (PBMC) on KATOIII CLDN18.2 cells, LDH: max (% cytotoxity) (run A) was determined as 0.3%; the ADCC (PBMC) on KATOIII CLDN18.2 cells, LDH: max (% cytotoxity) (run B) was -5.51%; the ADCC (PBMC) on KATOIII CLDN18.2 cells, LDH: max (% cytotoxity) (run C) is -7.64%; the ADCC (PBMC) on NCI-N87 CLDN18.2 cells, LDH: max (% cytotoxity) (run A) is -6.73%. For the same substance, the ADCC (PBMC) on NCI-N87 CLDN18.2 cells, LDH: max (% cytotoxity) (run B) was -11.7% and the ADCC (PBMC) on NCI-N87 CLDN18.2 cells, LDH: max (% cytotoxity) (run C) was -9.22%.
